B1: CPEB3 Ribozyme (parent)
chain: GGGGGCCACAGCAGAAGCGUUCACGUCGCGGCCCCUGUCAGAUUCUGGUGAAUCUGCGAAUUCUGCUGU

The variants in this data set derive from B1. Kind of data set: self-cleavage, relative activity (ratio to wild type); higher = more cleavage; co-transcriptional.
On to GGGGGCCACAGCAGAAGCGUUCACGUCGUGGCCCCUGUCAGAUUCUUGUGAAUCUGCGAAUUCUGCUGU, for which the self-cleavage stood at 0.631. As for GGGGGCCACAGCAGAAGCGUUCACGUCGCAGCCCCUGUCAGAUUCUGGUUAAUCUGCGAAUUCUGCUGU, the figure is 0.856. Under GGGGGCCACAGCAGAAGCGUUCACGUCGUGGCCCCUGUCAGAUUCUGGUGAAUCUGCGACUUCUGCUGU stands 0.223; under GGGGGCCACAGCAGAAGCGUUCACGUCGCAGCCCCUGUCAGUUUCUGGUGAAUCUGCGAAUUCUGCUGU, 0.677; under GGGGGCCACAGCAGAAGCGUUCACGUCGCAGCCCCUGUCAGCUUCUGGUGAAUCUGCGAAUUCUGCUGU, 0.623. Under GGGGGCCACAGCAGAAGCGUUCACGUCGCAGCCCCUGUCAGAUUCUGGUGCAUCUGCGAAUUCUGCUGU stands 0.718; under GGGGGCCACAGCAGAAGCGUUCACGUCGUGGCCCCUGUCAGCUUCUGGUGAAUCUGCGAAUUCUGCUGU, 0.229; under GGGGGCCACAGCAGAAGCGUUCACGUCGUGGCCCCUGUCAGGUUCUGGUGAAUCUGCGAAUUCUGCUGU, 0.246. Consider GGGGGCCACAGCAGAAGCGUUCACGUCGCAGCCCCUGUCAGAUUCUGGUGAAUCUGCGAAUUUUGCUGU, for which the self-cleavage worked out at 0.839. With GGGGGCCACAGCAGAAGCGUUCACGUCGCAGCCCCUGUCAGAUUCUGGUGAAUCUGCGAAUUGUGCUGU, the self-cleavage turned out to be 0.483.

Turning to GGGGGCCACAGCAGAAGCGUUCACGUCGCAGCGCCUGUCAGAUUCUGGUGAAUCUGCGAAUUCUGCUGU, the self-cleavage was determined as 0.227. As for GGGGGCCACAGCAGAAGCGUUCACGUCGUGGCCCCUGUCAGAUUCUGGUGAAUCUCCGAAUUCUGCUGU, the figure is 0.26; as for GGGGGCCACAGCAGAAGCGUUCACGUCGUGGCUCCUGUCAGAUUCUGGUGAAUCUGCGAAUUCUGCUGU, 0.511. As for GGGGGCCACAGCAGAAGCGUUCACGUCGUGGCCCCUGUCAGAUUCUGGUGAAUCUGCGAAUUCUGGUGU, the figure is 0.206; as for GGGGGCCACAGCAGAAGCGUUCACGUCGUGGCCCCUGUCAGAUUCUGGUGCAUCUGCGAAUUCUGCUGU, 0.356; as for GGGGGCCACAGCAGAAGCGUUCACGUCGUGGCCCCUGUCAGAUUCUGGUGUAUCUGCGAAUUCUGCUGU, 0.432. Under GGGGGCCACAGCAGAAGCGUUCACGUCGUGGCCCCUGUCAGAUUCCGGUGAAUCUGCGAAUUCUGCUGU stands 0.433. On to GGGGGCCACAGCAGAAGCGUUCACGUCGUGGCCCCUGUCAGAUUCGGGUGAAUCUGCGAAUUCUGCUGU, for which the self-cleavage came to 0.571.

Turning to GGGGGCCACAGCAGAAGCGUUCACGUCGCAGCCCCUUUCAGAUUCUGGUGAAUCUGCGAAUUCUGCUGU, the self-cleavage was 0.196. Under GGGGGCCACAGCAGAAGCGUUCACGUCGCAGCCCCUCUCAGAUUCUGGUGAAUCUGCGAAUUCUGCUGU stands 0.19; under GGGGGCCACAGCAGAAGCGUUCACGUCGCAGCCCCUAUCAGAUUCUGGUGAAUCUGCGAAUUCUGCUGU, 0.23.

For the variant GGGGGCCACAGCAGAAGCGUUCACGUCGCAGCCCCUGUCAGAUUCUGGUGAAUCUGCCAAUUCUGCUGU, the self-cleavage turned out to be 0.858. Under GGGGGCCACAGCAGAAGCGUUCACGUCGCAGCCCCUGUCAGAUUCUGGUGAAUCUGCUAAUUCUGCUGU stands 0.896; under GGGGGCCACAGCAGAAGCGUUCACGUCGCAGCCCCUGUCAGAUUCUGGUGAAUCUGCAAAUUCUGCUGU, 0.682; under GGGGGCCACAGCAGAAGCGUUCACGUCGUGGCCCCUGUCAGAUUCUGGUGAAUCUGCGAAUACUGCUGU, 0.15. Under GGGGGCCACAGCAGAAGCGUUCACGUCGCAGCCCUUGUCAGAUUCUGGUGAAUCUGCGAAUUCUGCUGU stands 0.533; under GGGGGCCACAGCAGAAGCGUUCACGUCGCAGCCCGUGUCAGAUUCUGGUGAAUCUGCGAAUUCUGCUGU, 0.186; under GGGGGCCACAGCAGAAGCGUUCACGUCGCAGCCCCUGACAGAUUCUGGUGAAUCUGCGAAUUCUGCUGU, 0.621. As for GGGGGCCACAGCAGAAGCGUUCACGUCGUGGCCCCUGUCAGAUUCUGGUGAAUCUGCCAAUUCUGCUGU, the figure is 0.398; as for GGGGGCCACAGCAGAAGCGUUCACGUCGCAGCCCCUGUAAGAUUCUGGUGAAUCUGCGAAUUCUGCUGU, 0.362.

As to GGGGGCCACAGCAGAAGCGUUCACGUCGUGGACCCUGUCAGAUUCUGGUGAAUCUGCGAAUUCUGCUGU, the self-cleavage is 0.295. Take GGGGGCCACAGCAGAAGCGUUCACGUCGUGGCCCCUGACAGAUUCUGGUGAAUCUGCGAAUUCUGCUGU: the self-cleavage is 0.2.

On to GGGGGCCACAGCAGAAGCGUUCACGUCGUGGCCCCUGUCAUAUUCUGGUGAAUCUGCGAAUUCUGCUGU, for which the self-cleavage turned out to be 0.191. As for GGGGGCCACAGCAGAAGCGUUCACGUCGCAGCCCCUGUCAGAUUCUGGUGAAUGUGCGAAUUCUGCUGU, the figure is 0.333. In the case of GGGGGCCACAGCAGAAGCGUUCACGUCGCAGCCCCUGUCAGAUUCUAGUGAAUCUGCGAAUUCUGCUGU, the self-cleavage was 0.916. As for GGGGGCCACAGCAGAAGCGUUCACGUCGCAGCCCCUGUCAGAUUCUUGUGAAUCUGCGAAUUCUGCUGU, the figure is 0.939; as for GGGGGCCACAGCAGAAGCGUUCACGUCGUGGCCCCUGUCAGAUUCUGGUGAAUCUGCGUAUUCUGCUGU, 0.232; as for GGGGGCCACAGCAGAAGCGUUCACGUCGUGGCCCCUGUCAGAUUCUGGUGAAUCUGCGAAUUCUGCUCU, 0.571. Regarding GGGGGCCACAGCAGAAGCGUUCACGUCGUGGCCCCUGUCAGAAUCUGGUGAAUCUGCGAAUUCUGCUGU, the self-cleavage was 0.171.
